From patent US20250353884A1

Target: T1, Chim^C::mCH
T1 sequence: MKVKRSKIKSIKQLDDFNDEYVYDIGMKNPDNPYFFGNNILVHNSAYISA
Experiment: cell-based or functional assay

B1: mTQ::Chim^N (protein, not shown: large carriers)
chain: SETGDTIHKTNWGELTVEELFNRGTRYWSEDNSKEYSANDELKVLTFDPVKDEAYYGNINYIYRHKVSKEQWEIEDEAGNTIRVTGDHSIMIERDGQLMDVKPRDMLDTDVLIVVDHN
B1 was tested. Which Kapp of the PTS reaction, pH 6.0 did it give?
The Kapp of the PTS reaction, pH 6.0 was 0.0107 s⁻¹.

What about the Kapp of the PTS reaction, pH 6.5 of the same binder?
The Kapp of the PTS reaction, pH 6.5 was 0.00807 s⁻¹.

What about the Kapp of the PTS reaction, pH 7.0 of the same binder?
Its Kapp of the PTS reaction, pH 7.0 is 0.00724 s⁻¹.
